Results reported in publication PMC4284786, “Refolded scFv Antibody Fragment against Myoglobin Shows Rapid Reaction Kinetics” (International Journal of Molecular Sciences, 2014).

T1: human myoglobin (human, UniProt P02144 1-154)
T1 chain: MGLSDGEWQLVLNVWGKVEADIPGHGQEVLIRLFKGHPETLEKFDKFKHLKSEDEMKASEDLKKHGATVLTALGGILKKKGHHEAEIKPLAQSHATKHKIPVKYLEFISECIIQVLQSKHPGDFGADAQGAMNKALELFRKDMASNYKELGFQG

T2: myoglobin peptide, aa 144–154 (Homo sapiens, UniProt P02144)
T2 construct: also called C-terminal region of the myoglobin peptide; source: synthetic peptide
T2 chain: ASNYKELGFQG

B1: parent premature antibody Myo2-7Ds (whole IgG) (antibody, V domains shown)
VH: QIQLVQSGPELKKPGETVKISCKASGYTFTDYSIHWVRQAPEKGLKWMGWINTETGEPTYADDFTGRFAFSLETSASTAYLQITNLKNEDTATYFCARRFTTTTWFAYWGQGTLVTVSA
VL: DVLMTQTPLSLPVSLGDQASISCRSSQNIVHSSGNTYLEWYLQKPGQSPRFLIYKVSNRFSGVPDRFSGSGSGTDFTLKISRVEAEDLGVYYCFQGSHVPYTFGGGTKLEIK
notes: as the VH of m1; constant part of the heavy chain; as the VL of m1; constant part of the light chain; IgG; The variable regions were the template of the scFv m1; also called IgG2-7Ds; parental antibody
B2: refolded scFv-Myo2-7Ds (scFv, V domains shown)
VH: B1 VH
VL: B1 VL
notes: VH of the monoclonal antibody Myo2-7Ds; (GGGGS) x 3 linker between VH and VL; VL of the monoclonal antibody Myo2-7Ds; Plasmid pET28a-scFv-Myo2-7Ds6xH, no pelB leader; A TEV cleavage site stands between the N-terminal His6 tag and the scFv; no cleavage is reported; The abstract gives the order VH-VL, but both printed primers seem to encode ends of a light chain; also called 2-7ds …

What was measured:
[1] = biological target: T1, human myoglobin; assay: BLI
[2] = biological target: T1, human myoglobin; assay: BLI
[3] = biological target: T3, equine myoglobin (Equus caballus, UniProt P68082); assay: ELISA; proteins coated on a 96-well plate (human myoglobin 5 μg/mL in carbonate buffer pH 9.6, 4 °C, 16 h), blocked with BSA in PBST; scFv or premature antibody added for 1 h at 37 °C; scFv detected by anti-6x His tag antibody and HRP-conjugated secondary antibody; scFv 1.9 μg/mL, IgG2-7Ds 0.5 μg/mL in the comparison of proteins; settings: both partners purified
T3 construct: myoglobin, equine

[4] = biological target: T4, conalbumin (Gallus gallus (assumed), UniProt P02789); assay: as above; settings: both partners purified
T4 construct: conalbumin (ovotransferrin)

[5] = biological target: T5, human myoglobin (Homo sapiens, UniProt P02144); assay: BLI; Octet Red; human myoglobin (5 μg/mL in PBS, pH 7.4) immobilised on APS sensor tip at 30 °C for 900 s, blocked with 0.5% casein in PBS; scFv in casein-PBS; BSA as negative control; settings: both partners purified
T5 construct: myoglobin, human; also called myoglobin antigen; human myoglobin antigen

[6] = biological target: T2, myoglobin peptide, aa 144–154; assay: ELISA; synthetic peptides of human myoglobin and human cardiac troponin I; scFv 1.9 μg/mL, IgG2-7Ds 0.5 μg/mL; settings: both partners purified

T4 sequence (P02789 20-705): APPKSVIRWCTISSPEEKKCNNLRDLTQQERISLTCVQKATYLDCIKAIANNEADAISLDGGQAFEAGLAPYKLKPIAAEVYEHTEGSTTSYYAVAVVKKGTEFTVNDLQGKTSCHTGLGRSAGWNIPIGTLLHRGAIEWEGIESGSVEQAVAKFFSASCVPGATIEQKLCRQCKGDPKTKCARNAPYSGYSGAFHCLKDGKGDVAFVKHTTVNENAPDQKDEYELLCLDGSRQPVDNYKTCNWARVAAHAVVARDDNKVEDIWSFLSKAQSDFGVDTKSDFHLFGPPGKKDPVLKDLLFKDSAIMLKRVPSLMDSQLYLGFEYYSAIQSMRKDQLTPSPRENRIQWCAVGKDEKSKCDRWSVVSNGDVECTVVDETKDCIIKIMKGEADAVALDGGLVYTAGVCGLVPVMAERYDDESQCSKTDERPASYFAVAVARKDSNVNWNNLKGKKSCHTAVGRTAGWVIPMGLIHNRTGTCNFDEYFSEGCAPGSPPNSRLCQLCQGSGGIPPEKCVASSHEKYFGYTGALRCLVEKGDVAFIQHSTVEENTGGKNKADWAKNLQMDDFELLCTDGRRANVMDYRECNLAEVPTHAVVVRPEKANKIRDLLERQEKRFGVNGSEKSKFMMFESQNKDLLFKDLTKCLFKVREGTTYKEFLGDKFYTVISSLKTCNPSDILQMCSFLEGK
T3 sequence (P68082 whole entry): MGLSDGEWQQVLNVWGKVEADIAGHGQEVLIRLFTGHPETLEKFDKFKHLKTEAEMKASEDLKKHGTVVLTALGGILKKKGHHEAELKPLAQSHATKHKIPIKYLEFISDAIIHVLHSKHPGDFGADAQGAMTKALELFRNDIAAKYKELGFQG

Binder	Kd [1]	koff [2]	binding result [3]	binding result [4]	Kd [5]	koff [5]	kon [5]	binding result [6]
B1	2.89 nM	0.0104 s⁻¹	binds	no binding (tested: IgG2-7Ds 0.5 μg/mL)				
B2	61.1 nM		binds	no binding (tested: scFv 1.9 μg/mL)	10 nM	0.00629 s⁻¹	93200 M⁻¹ s⁻¹	binds
